Source: patent publication US20150344570A1 (published 2015)

Target: FcγRIIIa extracellular domain with C-terminal His tag (human, UniProt P08637 17-208)
Assay: SPR (Biacore), both H chains altered; HoCon Ab GpH7-B3/GpL16-k0 = 100

Chain of FcγRIIIa extracellular domain with C-terminal His tag (P08637 17-208): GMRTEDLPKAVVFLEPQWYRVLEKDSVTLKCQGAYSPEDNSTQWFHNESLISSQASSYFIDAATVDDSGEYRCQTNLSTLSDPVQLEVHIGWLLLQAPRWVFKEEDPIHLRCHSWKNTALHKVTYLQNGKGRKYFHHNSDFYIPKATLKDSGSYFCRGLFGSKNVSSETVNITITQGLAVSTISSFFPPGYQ

| Binder | Ho/Con_3a |
| --- | --- |
| GpH7-B3 variant P271_01G/GpL16-k0 (antibody, human IgG1, kappa, both H chains altered; also called Ho Ab P271_01G) heavy: not shown light: DIVMTQSPLSLPVTPGEPASISCQASESLVHSNRNTYLHWYLQKPGQSPQLLIYKVSNRFSGVPDRFSGSGSGTDFTLKISRVEAEDVGVYYCSQNTHVPPTFGQGTKVEIERTVAAPSVFIFPPSDEQLKSGTASVVCLLNNFYPREAKVQWKVDNALQSGNSQESVTEQDSKDSTYSLSSTLTLSKADYEKHKVYACEVTHQGLSSPVTKSFNRGEC | 88% |
| GpH7-B3 variant S324_02A/GpL16-k0 (antibody, human IgG1, kappa, both H chains altered; also called Ho Ab S324_02A) heavy: not shown light: DIVMTQSPLSLPVTPGEPASISCQASESLVHSNRNTYLHWYLQKPGQSPQLLIYKVSNRFSGVPDRFSGSGSGTDFTLKISRVEAEDVGVYYCSQNTHVPPTFGQGTKVEIERTVAAPSVFIFPPSDEQLKSGTASVVCLLNNFYPREAKVQWKVDNALQSGNSQESVTEQDSKDSTYSLSSTLTLSKADYEKHKVYACEVTHQGLSSPVTKSFNRGEC | 99.8% |
| GpH7-B3 variant S337_14T/GpL16-k0 (antibody, human IgG1, kappa, both H chains altered; also called Ho Ab S337_14T) heavy: not shown light: DIVMTQSPLSLPVTPGEPASISCQASESLVHSNRNTYLHWYLQKPGQSPQLLIYKVSNRFSGVPDRFSGSGSGTDFTLKISRVEAEDVGVYYCSQNTHVPPTFGQGTKVEIERTVAAPSVFIFPPSDEQLKSGTASVVCLLNNFYPREAKVQWKVDNALQSGNSQESVTEQDSKDSTYSLSSTLTLSKADYEKHKVYACEVTHQGLSSPVTKSFNRGEC | 97.2% |
| GpH7-B3 variant S337_04F/GpL16-k0 (antibody, human IgG1, kappa, both H chains altered; also called Ho Ab S337_04F) heavy: not shown light: DIVMTQSPLSLPVTPGEPASISCQASESLVHSNRNTYLHWYLQKPGQSPQLLIYKVSNRFSGVPDRFSGSGSGTDFTLKISRVEAEDVGVYYCSQNTHVPPTFGQGTKVEIERTVAAPSVFIFPPSDEQLKSGTASVVCLLNNFYPREAKVQWKVDNALQSGNSQESVTEQDSKDSTYSLSSTLTLSKADYEKHKVYACEVTHQGLSSPVTKSFNRGEC | 95.6% |
| GpH7-B3 variant S337_15Y/GpL16-k0 (antibody, human IgG1, kappa, both H chains altered; also called Ho Ab S337_15Y) heavy: not shown light: DIVMTQSPLSLPVTPGEPASISCQASESLVHSNRNTYLHWYLQKPGQSPQLLIYKVSNRFSGVPDRFSGSGSGTDFTLKISRVEAEDVGVYYCSQNTHVPPTFGQGTKVEIERTVAAPSVFIFPPSDEQLKSGTASVVCLLNNFYPREAKVQWKVDNALQSGNSQESVTEQDSKDSTYSLSSTLTLSKADYEKHKVYACEVTHQGLSSPVTKSFNRGEC | 99% |

Next, values leading:

| Ho/Con_3a | Binder |
| --- | --- |
| 99.5% | GpH7-B3 variant T335_16H/GpL16-k0 (antibody, human IgG1, kappa, both H chains altered; also called Ho Ab T335_16H) heavy: not shown light: DIVMTQSPLSLPVTPGEPASISCQASESLVHSNRNTYLHWYLQKPGQSPQLLIYKVSNRFSGVPDRFSGSGSGTDFTLKISRVEAEDVGVYYCSQNTHVPPTFGQGTKVEIERTVAAPSVFIFPPSDEQLKSGTASVVCLLNNFYPREAKVQWKVDNALQSGNSQESVTEQDSKDSTYSLSSTLTLSKADYEKHKVYACEVTHQGLSSPVTKSFNRGEC |
| 91.5% | GpH7-B3 variant T335_15Y/GpL16-k0 (antibody, human IgG1, kappa, both H chains altered; also called Ho Ab T335_15Y) heavy: not shown light: DIVMTQSPLSLPVTPGEPASISCQASESLVHSNRNTYLHWYLQKPGQSPQLLIYKVSNRFSGVPDRFSGSGSGTDFTLKISRVEAEDVGVYYCSQNTHVPPTFGQGTKVEIERTVAAPSVFIFPPSDEQLKSGTASVVCLLNNFYPREAKVQWKVDNALQSGNSQESVTEQDSKDSTYSLSSTLTLSKADYEKHKVYACEVTHQGLSSPVTKSFNRGEC |
| 97.6% | GpH7-B3 variant T335_13S/GpL16-k0 (antibody, human IgG1, kappa, both H chains altered; also called Ho Ab T335_13S) heavy: not shown light: DIVMTQSPLSLPVTPGEPASISCQASESLVHSNRNTYLHWYLQKPGQSPQLLIYKVSNRFSGVPDRFSGSGSGTDFTLKISRVEAEDVGVYYCSQNTHVPPTFGQGTKVEIERTVAAPSVFIFPPSDEQLKSGTASVVCLLNNFYPREAKVQWKVDNALQSGNSQESVTEQDSKDSTYSLSSTLTLSKADYEKHKVYACEVTHQGLSSPVTKSFNRGEC |
| 87.8% | GpH7-B3 variant S337_20W/GpL16-k0 (antibody, human IgG1, kappa, both H chains altered; also called Ho Ab S337_20W) heavy: not shown light: DIVMTQSPLSLPVTPGEPASISCQASESLVHSNRNTYLHWYLQKPGQSPQLLIYKVSNRFSGVPDRFSGSGSGTDFTLKISRVEAEDVGVYYCSQNTHVPPTFGQGTKVEIERTVAAPSVFIFPPSDEQLKSGTASVVCLLNNFYPREAKVQWKVDNALQSGNSQESVTEQDSKDSTYSLSSTLTLSKADYEKHKVYACEVTHQGLSSPVTKSFNRGEC |
